Source: IntAct's records for PubMed 21481780

B1: Phosphotransferase RcsD (Escherichia coli (strain K12)), P39838 (parent)
chain: MRQKETTATTRFSLLPGSITRFFLLLIIVLLVTMGVMVQSAVNAWLKDKSYQIVDITHAIQKRVDNWRYVTWQIYDNIAATTSPSSGEGLQETRLKQDVYYLEKPRRKTEALIFGSHDNSTLEMTQRMSTYLDTLWGAENVPWSMYYLNGQDNSLVLISTLPLKDLTSGFKESTVSDIVDSRRAEMLQQANALDERESFSNMRRLAWQNGHYFTLRTTFNQPGHLATVVAFDLPINDLIPPGMPLDSFRLEPDATATGNNDNEKEGTDSVSIHFNSTKIEISSALNSTDMRLVWQVPYGTLLLDTLQNILLPLLLNIGLLALALFGYTTFRHFSSRSTENVPSTAVNNELRILRAINEEIVSLLPLGLLVHDQESNRTVISNKIADHLLPHLNLQNITTMAEQHQGIIQATINNELYEIRMFRSQVAPRTQIFIIRDQDREVLVNKKLKQAQRLYEKNQQGRMIFMKNIGDALKEPAQSLAESAAKLNAPESKQLANQADVLVRLVDEIQLANMLADDSWKSETVLFSVQDLIDEVVPSVLPAIKRKGLQLLINNHLKAHDMRRGDRDALRRILLLLMQYAVTSTQLGKITLEVDQDESSEDRLTFRILDTGEGVSIHEMDNLHFPFINQTQNDRYGKADPLAFWLSDQLARKLGGHLNIKTRDGLGTRYSVHIKMLAADPEVEEEEERLLDDVCVMVDVTSAEIRNIVTRQLENWGATCITPDERLISQDYDIFLTDNPSNLTASGLLLSDDESGVREIGPGQLCVNFNMSNAMQEAVLQLIEVQLAQEEVTESPLGGDENAQLHASGYYALFVDTVPDDVKRLYTEAATSDFAALAQTAHRLKGVFAMLNLVPGKQLCETLEHLIREKDVPGIEKYISDIDSYVKSLL
partner: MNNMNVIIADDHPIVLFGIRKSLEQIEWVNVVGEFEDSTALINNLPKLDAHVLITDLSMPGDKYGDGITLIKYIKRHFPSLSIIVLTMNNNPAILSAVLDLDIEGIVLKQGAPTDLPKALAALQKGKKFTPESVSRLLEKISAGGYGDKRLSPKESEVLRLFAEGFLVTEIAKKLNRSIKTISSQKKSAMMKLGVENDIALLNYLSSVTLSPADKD

Variants of: B1
Details: with rcsb_ecoli rcsB

Variant	effect of a mutation on the interaction
N715A;Q776A;L780A	decreasing interaction
